Experiment: yeast display, Sf9 membrane polyspecificity reagent, FACS + sequencing; frameworks hold sequencing errors
Procedure, shortened: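 A nanobody's polyreactivity label depends on the gate it was sorted from. Yeast display cells were stained with 10% biotinylated, detergent-solubilized Sf9 membrane reagent for 1 hour at 4 °C, enriched on streptavidin microbeads and sorted by FACS. The low and high (top ~1%) gates were set on anti-HA fluorescence for expression and streptavidin fluorescence for reagent binding.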

Sequence | polyreactivity (PSR sort gate)
QVHLVESGGGLVQAGGSLRLICAASGSTFLYYAKGWYRQAPGNEMELVAANSQSSASTYYADSVKGRFTISRDNAKTTIYFQIISLKPEDTAVYYCAADYWSVPYIYEYWRQGTQVTVSS | high polyreactivity
QVHLVESGGGLVQAGGSLRLICAASGYIFQRNAMGWYRQAPGKEREFVAAITRSGGTTYYADSVKGRFTISRDNAKNTVYLQMNSLKPEDTAGYYCNAPRSDRSVYHYHYWGQGTQVTVSS | low polyreactivity
QVHLVESGGGLVQAGGSLRLRSAASGRTFGWNVMGWYRQAPGKERELVAAISGSGGSTYYADSVKGRFTISRDNAKNTVYLQMNSLKPEDTAVYYCDALYGPGREYDYWGQGTQVTVSS | low polyreactivity
QVHLVESGGGLVQAGGSLRLSCAASASTYGSNSMGWYRQAPGKERELVAAITLPGASTYYADSVKGRFTISRDNAKNTVSLEMNSLKGEDTSVYSCAAQIHPRRDYSAFDYWGPGTQVTVSS | low polyreactivity
QVHLVESGGGLVQAGGSLRLSCAASGFIFDKYAMGWYRQAPGKERELVAAITDTGGNTYYADSVKGRFTISRDNAKNTVYLQMNSLKPEDTAVYYCNADYNDYQTYSATTYEYWGQGTQVTVSS | low polyreactivity
QVHLVESGGGLVQAGGSLRLSCAASGFIFGSNAMGWSRQAPGKERELVAAITYSGASTYYADSVKGRFTISRDNAKNTVYLQMNSLKPEDTAVYYCNAVYSSVVDGSEGFDYWGQGTQVTVSS | low polyreactivity
QVHLVESGGGLVQAGGSLRLSCAASGFIFSFYGMGWSRHAPAKESELVAAISSGGTTYYADSVKGRFTISRDNAKNSVYLQMNSLKPEDTAVYYCAGRVARRTTSVFSYFSRYNYWGQGTQVSVSS | high polyreactivity
QVHLVESGGGLVQAGGSLRLSCAASGFIFSWYDMGWYRQAPGKERELVAAINWSGGSTYYADSVKGRFTISRDNAKNTVYLQIISLKPEDTAVYYCAAVRQSQFEYWGQGTQVTVSS | high polyreactivity
QVHLVESGGGLVQAGGSLRLSCAASGFTFGPYAMGWYRQAPGKERELVAGITWSGASTYYADSVKGRFTISRDNAKNTVYLQMNSLKPEDTAVYYCARYYRLGSRYDYWGQGTQVTLSS | low polyreactivity
QVHLVESGGGLVQAGGSLRLSCAASGFTFGVYAMGWYRQAPGKEREFVAAISTTVGSTYYADSVKGRFTISRDNAKNTVYLQLNSLKPEDTAVYYCAAEYTGYINYYIYEYWGQGTQVTVSS | low polyreactivity
QVHLVESGGGLVQAGGSLRLSCAASGFTFGWNAMGWYRQAPGKERELVASINSGGSTYNADSVKGRFTISRDNAKNTVYLEMNFLKPEDTAVYYCATAPYVTSRRYGPYEYWGQGSQVTVSS | low polyreactivity
QVHLVESGGGLVQAGGSLRLSCAASGFTFNRYAMGWYRQAPGKERELVATISSGGNTNYADSVKGRFTISRDNAKKTVYLQMNSLKPEDTAVYYCNADRWFHYYSYNYWGQGTQVTVSS | high polyreactivity
QVHLVESGGGLVQAGGSLRLSCAASGFTILTYGMGWYRQAPGKERELVAAIRWSGGRTYYADSVKGRFTISRDNAKNTVYLQMNSLKPEDTAVYYCAARYKFSTIRGVDYWGQGTQVTVSS | high polyreactivity
QVHLVESGGGLVQAGGSLRLSCAASGFTLYGNVMGWYRPAPGKERELVAAISWSTDSTYYADSLKGRFTISRDNAKNTVYLQMNSLKPEDTAIYYCAADYSHLPIAWYYYWGQGTQVTVSS | low polyreactivity
QVHLVESGGGLVQAGGSLRLSCAASGGIFDYYAMGWYRQAPGKERELVATISRGGSTYYADSVKGRFTISRDNAKNTVYLQMNSLKPEDTAVYYCAARQTRYWYRAWFVEHDYWGQGTKVTVSS | high polyreactivity
QVHLVESGGGLVQAGGSLRLSCAASGGIFYTYAMGWYRQAPGKEREMVAAISWRGGSTYYADSVKGRFTISRDNAKNTVYLQMNSLNPEDSAVYYCNKVTDYYYQIYWSYPYFTPDYFWGQGTQVTVSS | high polyreactivity
QVHLVESGGGLVQAGGSLRLSCAASGGTFDKNAMGWYSQAPGKESEFVAAITYGGGSTYYADSVKGRFTISRDNAKNTVYLQMTSLKPEDSAVYYCAVAIITYPYATGSSYDYWGQGTQVTVSS | low polyreactivity
